Here are results for three proteins from PMC12757645, “Bacillus subtilis encodes three N-acetylcysteine deacetylase enzymes that can catalyze the final step in S-(2-succino)cysteine breakdown” (The Journal of Biological Chemistry, 2025).

Substrate in this series: CC(=O)N[C@@H](CS)C(=O)O
Description: purified protein. Particulars: 50 mM potassium phosphate pH 7.8, 5 mM CoCl2, 37 °C. The class given is biochemical, Bacillus subtilis.

B1: YhaA (Bacillus subtilis subsp. subtilis str. 168) (protein)
chain: MSISTLQKEINKQLDGCFEEMVEIRRHFHMYPELSFQEEKTAAFIASYYESLGVPIRTNVGGRGVLANIEGSEPGPTVALRADFDALPIQDEKDVPYASKVPGVMHACGHDGHTAALLAVAKVLHQNRHELKGTFVMIHQHAEEYYPGGAKPMIDDGCLENTDVIFGTHLWATEPLGTILCRPGAVMAAADRFTIKVFGKGGHGAHPHDTKDAVLIGSQIVSSLQHIVSRKVNPIQSAVISTGSFIADNPFNVIADQAVLIGTARSFDENVRDILEKEIEAVVKGICSMHGASYEYTYEQGYPAVVNHPAETNHLVSTAKNTEGVQQVIDGEPQMGGEDFAYYLQNVKGTFFFTGAAPEQPERVYSHHHPKFDINEKAMLTAAKVLAGAAITYHQL
Regarding B1, the Km was found to be 895.8 ± 338.1 µM, the Vmax stood at 24.7 µmol/min/mg, the kcat came out at 18.8 ± 1.3 s⁻¹ and the kcat/Km was found to be 21000 ± 3700 M⁻¹ s⁻¹.

B2: YtnL (Bacillus subtilis subsp. subtilis str. 168) (protein)
chain: MSLDYWRNIEGSYPYQTTGNDILTLKEESNPVNLSTLEKQLIGIRRHLHQYPELSKEEFETTAFIKKCLKEKGIQIRPTALKTGVFADIAGESEGPAIALRADIDALPIEEKTGLPYASKHKGIMHACGHDFHTAALLGAAFLLKENQDSLKGKIRLLFQPAEEAGAGATKVIEDGQLDGIDAVIGLHNKPDIAVGTVGLKTGPLMAAVDRFKVEIEGKGAHAALPHNGFDPIIGASQLIVALQTIVSRNVNPLQSAILTVGKINGGSTWNVIPDTVVIEGTVRTFDSEVRNQVKQRFFAVTEQISAAFSLKANVKWHSGPPPLCNDEAITGLVRDAAHKAKLQVIDPAPSTAGEDFAYYLEHIPGSFAFFGTDGDHDWHHPAFTIDETAIIKASYFLYESAKRLLDSNEESKISD
For the protein B2, the Km turned out to be 855.0 ± 339.2 µM, the Vmax worked out at 43 µmol/min/mg, the kcat is 34.2 ± 3.8 s⁻¹ and the kcat/Km turned out to be 40000 ± 11000 M⁻¹ s⁻¹.

B3: ScmP (Bacillus subtilis subsp. subtilis str. 168) (protein)
chain: MADKAFHTRLINMRRDLHEHPELSFQEVETTKKIRRWLEEEQIEILDVPQLKTGVIAEIKGREDGPVIAIRADIDALPIQEQTNLPFASKVDGTMHACGHDFHTASIIGTAMLLNQRRAELKGTVRFIFQPAEEIAAGARKVLEAGVLNGVSAIFGMHNKPDLPVGTIGVKEGPLMASVDRFEIVIKGKGGHAGIPNNSIDPIAAAGQIISGLQSVVSRNISSLQNAVVSITRVQAGTSWNVIPDQAEMEGTVRTFQKEARQAVPEHMRRVAEGIAAGYGAQAEFKWFPYLPSVQNDGTFLNAASEAAARLGYQTVHAEQSPGGEDFALYQEKIPGFFVWMGTNGTEEWHHPAFTLDEEALTVASQYFAELAVIVLETIK
As to B3, the Km amounted to 494.5 ± 67.4 µM, the Vmax is 112 µmol/min/mg and the kcat came out at 82.5 ± 9.2 s⁻¹.

Broadly, the Km is the substrate concentration at which the rate is half of its maximum. In general, Vmax refers to the top rate of the reaction or transport when substrate is in excess. As a reminder, the kcat is the number of substrate molecules converted per active site and unit of time at saturation. Broadly, the kcat/Km is the second-order rate constant that governs catalysis at low substrate concentration.
